Patent publication US9376684
Blank lines part the entries; values can stand above or below the substance they belong to.

Experiments:
[1] = system: synthetic C-terminal hirudin dodecapeptide analog comprising hirudin residues 53-64, with sulfato-Tyr64 (American Diagnostica)
[2] = system: native full-length hirudin (Biopharm)
TFPI1-276-CD4 [3] = biological target: TFPI1-276-CD4 (UniProt P10646)
TFPI1-183-CD4 [4] = biological target: TFPI1-183-CD4 (UniProt P10646)
TFPI1-276-CD4 [5] = biological target: TFPI1-276-CD4 (UniProt P10646); assay: flow cytometry, DAP.3 transfectants incubated with increasing FXa
TFPI1-183-CD4 [6] = biological target: TFPI1-183-CD4 (UniProt P10646); assay: as above

Substance: thrombin
- thrombin-dependent catalytic activity (cleavage of chromogenic substrate S-2238) [1]: the dodecapeptide did not influence thrombin-dependent catalytic activity as measured by cleavage of S-2238
- thrombin-dependent catalytic activity (cleavage of chromogenic substrate S-2238) [2]: no chromogenic conversion was observed with thrombin incubated with PPACK-HCl or hirudin as compared to thrombin incubated without inhibitor

Substance: FXa
- proteolytic activity of FXa (chromogenic substrate S-2765; time required to reach OD405=0.1) (TFPI1-276-CD4 [3]): FXa activity was inhibited by expressed TFPI-CD4 in a dose dependent manner with the greatest inhibition noted when low concentrations of FXa (0.16 nM) were added
- proteolytic activity of FXa (chromogenic substrate S-2765; time required to reach OD405=0.1) (TFPI1-183-CD4 [4]): FXa activity was inhibited by expressed TFPI-CD4 in a dose dependent manner with the greatest inhibition noted when low concentrations of FXa (0.16 nM) were added

- FXa concentration at which significant binding was detected (TFPI1-276-CD4 [5]): 0.02 nM
- FXa concentration at which significant binding was detected (TFPI1-183-CD4 [6]): 0.02 nM
Substance: FXa (from UniProt P00742 41-488) (enzyme)
